Data as given in patent US12679878B2, “CRF2 receptor agonists and their use in therapy” (SANOFI, priority 2020, dated 2026).
Starred links: 1 amine or outer side, 2 acyl side, 3 side chain; linkers in the order of their positions; H or OH if unused. Non-standard residues stand in square brackets, D forms with d. Groups on a side chain read outwards from the residue. No end group written: not given here. *: point of attachment. C20 diacid = O=C(O)CCCCCCCCCCCCCCCCCCC(=O)*; C18 diacid = O=C(O)CCCCCCCCCCCCCCCCC(=O)*; γGlu = O=C(O)[C@H](CCC(=O)[*:2])N[*:1]; AEEA = NCCOCCOCC(=O)O; Aib = CC(C)(N)C(=O)O

B1: SEQ ID NO: 181 (peptide)
peptide: IVLSLD[dV]PIKLK([γGlu-C18 diacid])QILLKQERQKKQRQQAEKNKQILAQV-NH2
modifications: N-terminus assumed
SMILES: CC[C@H](C)[C@H](N)C(=O)N[C@H](C(=O)N[C@@H](CC(C)C)C(=O)N[C@@H](CO)C(=O)N[C@@H](CC(C)C)C(=O)N[C@@H](CC(=O)O)C(=O)N[C@@H](C(=O)N1CCC[C@H]1C(=O)N[C@H](C(=O)N[C@@H](CCCCN)C(=O)N[C@@H](CC(C)C)C(=O)N[C@@H](CCCCNC(=O)CC[C@H](NC(=O)CCCCCCCCCCCCCCCCC(=O)O)C(=O)O)C(=O)N[C@@H](CCC(N)=O)C(=O)N[C@H](C(=O)N[C@@H](CC(C)C)C(=O)N[C@@H](CC(C)C)C(=O)N[C@@H](CCCCN)C(=O)N[C@@H](CCC(N)=O)C(=O)N[C@@H](CCC(=O)O)C(=O)N[C@@H](CCCNC(=N)N)C(=O)N[C@@H](CCC(N)=O)C(=O)N[C@@H](CCCCN)C(=O)N[C@@H](CCCCN)C(=O)N[C@@H](CCC(N)=O)C(=O)N[C@@H](CCCNC(=N)N)C(=O)N[C@@H](CCC(N)=O)C(=O)N[C@@H](CCC(N)=O)C(=O)N[C@@H](C)C(=O)N[C@@H](CCC(=O)O)C(=O)N[C@@H](CCCCN)C(=O)N[C@@H](CC(N)=O)C(=O)N[C@@H](CCCCN)C(=O)N[C@@H](CCC(N)=O)C(=O)N[C@H](C(=O)N[C@@H](CC(C)C)C(=O)N[C@@H](C)C(=O)N[C@@H](CCC(N)=O)C(=O)N[C@H](C(N)=O)C(C)C)[C@@H](C)CC)[C@@H](C)CC)[C@@H](C)CC)C(C)C)C(C)C
B2: SEQ ID NO: 22 (peptide)
peptide: IVLSLDVPIKLK([AEEA-AEEA-γGlu-C18 diacid])QILLKQERQK[Aib]QRQKAEKNKQILAQV-NH2
modifications: N-terminus assumed
SMILES: CC[C@H](C)[C@H](N)C(=O)N[C@H](C(=O)N[C@@H](CC(C)C)C(=O)N[C@@H](CO)C(=O)N[C@@H](CC(C)C)C(=O)N[C@@H](CC(=O)O)C(=O)N[C@H](C(=O)N1CCC[C@H]1C(=O)N[C@H](C(=O)N[C@@H](CCCCN)C(=O)N[C@@H](CC(C)C)C(=O)N[C@@H](CCCCNC(=O)COCCOCCNC(=O)COCCOCCNC(=O)CC[C@H](NC(=O)CCCCCCCCCCCCCCCCC(=O)O)C(=O)O)C(=O)N[C@@H](CCC(N)=O)C(=O)N[C@H](C(=O)N[C@@H](CC(C)C)C(=O)N[C@@H](CC(C)C)C(=O)N[C@@H](CCCCN)C(=O)N[C@@H](CCC(N)=O)C(=O)N[C@@H](CCC(=O)O)C(=O)N[C@@H](CCCNC(=N)N)C(=O)N[C@@H](CCC(N)=O)C(=O)N[C@@H](CCCCN)C(=O)NC(C)(C)C(=O)N[C@@H](CCC(N)=O)C(=O)N[C@@H](CCCNC(=N)N)C(=O)N[C@@H](CCC(N)=O)C(=O)N[C@@H](CCCCN)C(=O)N[C@@H](C)C(=O)N[C@@H](CCC(=O)O)C(=O)N[C@@H](CCCCN)C(=O)N[C@@H](CC(N)=O)C(=O)N[C@@H](CCCCN)C(=O)N[C@@H](CCC(N)=O)C(=O)N[C@H](C(=O)N[C@@H](CC(C)C)C(=O)N[C@@H](C)C(=O)N[C@@H](CCC(N)=O)C(=O)N[C@H](C(N)=O)C(C)C)[C@@H](C)CC)[C@@H](C)CC)[C@@H](C)CC)C(C)C)C(C)C
B3: SEQ ID NO: 178 (peptide)
peptide: IVLSLD[dV]PIKLK([AEEA-AEEA-γGlu-C20 diacid])QILLKQERQKKQRQQAEKNKQILAQV-NH2
modifications: N-terminus assumed
SMILES: CC[C@H](C)[C@H](N)C(=O)N[C@H](C(=O)N[C@@H](CC(C)C)C(=O)N[C@@H](CO)C(=O)N[C@@H](CC(C)C)C(=O)N[C@@H](CC(=O)O)C(=O)N[C@@H](C(=O)N1CCC[C@H]1C(=O)N[C@H](C(=O)N[C@@H](CCCCN)C(=O)N[C@@H](CC(C)C)C(=O)N[C@@H](CCCCNC(=O)COCCOCCNC(=O)COCCOCCNC(=O)CC[C@H](NC(=O)CCCCCCCCCCCCCCCCCCC(=O)O)C(=O)O)C(=O)N[C@@H](CCC(N)=O)C(=O)N[C@H](C(=O)N[C@@H](CC(C)C)C(=O)N[C@@H](CC(C)C)C(=O)N[C@@H](CCCCN)C(=O)N[C@@H](CCC(N)=O)C(=O)N[C@@H](CCC(=O)O)C(=O)N[C@@H](CCCNC(=N)N)C(=O)N[C@@H](CCC(N)=O)C(=O)N[C@@H](CCCCN)C(=O)N[C@@H](CCCCN)C(=O)N[C@@H](CCC(N)=O)C(=O)N[C@@H](CCCNC(=N)N)C(=O)N[C@@H](CCC(N)=O)C(=O)N[C@@H](CCC(N)=O)C(=O)N[C@@H](C)C(=O)N[C@@H](CCC(=O)O)C(=O)N[C@@H](CCCCN)C(=O)N[C@@H](CC(N)=O)C(=O)N[C@@H](CCCCN)C(=O)N[C@@H](CCC(N)=O)C(=O)N[C@H](C(=O)N[C@@H](CC(C)C)C(=O)N[C@@H](C)C(=O)N[C@@H](CCC(N)=O)C(=O)N[C@H](C(N)=O)C(C)C)[C@@H](C)CC)[C@@H](C)CC)[C@@H](C)CC)C(C)C)C(C)C
B4: SEQ ID NO: 182 (peptide)
peptide: IVLSLD[dV]PIKLK(C18 diacid)QILLKQERQK[Aib]QREQAEKNKQILAQV-NH2
modifications: N-terminus assumed
SMILES: CC[C@H](C)[C@H](N)C(=O)N[C@H](C(=O)N[C@@H](CC(C)C)C(=O)N[C@@H](CO)C(=O)N[C@@H](CC(C)C)C(=O)N[C@@H](CC(=O)O)C(=O)N[C@@H](C(=O)N1CCC[C@H]1C(=O)N[C@H](C(=O)N[C@@H](CCCCN)C(=O)N[C@@H](CC(C)C)C(=O)N[C@@H](CCCCNC(=O)CCCCCCCCCCCCCCCCC(=O)O)C(=O)N[C@@H](CCC(N)=O)C(=O)N[C@H](C(=O)N[C@@H](CC(C)C)C(=O)N[C@@H](CC(C)C)C(=O)N[C@@H](CCCCN)C(=O)N[C@@H](CCC(N)=O)C(=O)N[C@@H](CCC(=O)O)C(=O)N[C@@H](CCCNC(=N)N)C(=O)N[C@@H](CCC(N)=O)C(=O)N[C@@H](CCCCN)C(=O)NC(C)(C)C(=O)N[C@@H](CCC(N)=O)C(=O)N[C@@H](CCCNC(=N)N)C(=O)N[C@@H](CCC(=O)O)C(=O)N[C@@H](CCC(N)=O)C(=O)N[C@@H](C)C(=O)N[C@@H](CCC(=O)O)C(=O)N[C@@H](CCCCN)C(=O)N[C@@H](CC(N)=O)C(=O)N[C@@H](CCCCN)C(=O)N[C@@H](CCC(N)=O)C(=O)N[C@H](C(=O)N[C@@H](CC(C)C)C(=O)N[C@@H](C)C(=O)N[C@@H](CCC(N)=O)C(=O)N[C@H](C(N)=O)C(C)C)[C@@H](C)CC)[C@@H](C)CC)[C@@H](C)CC)C(C)C)C(C)C
B5: SEQ ID NO: 180 (peptide)
peptide: IVLSLD[dV]PIKLK([γGlu-C18 diacid])QILLKQARQK[Aib]QRAQAEKNKRILERV-NH2
modifications: N-terminus assumed
SMILES: CC[C@H](C)[C@H](N)C(=O)N[C@H](C(=O)N[C@@H](CC(C)C)C(=O)N[C@@H](CO)C(=O)N[C@@H](CC(C)C)C(=O)N[C@@H](CC(=O)O)C(=O)N[C@@H](C(=O)N1CCC[C@H]1C(=O)N[C@H](C(=O)N[C@@H](CCCCN)C(=O)N[C@@H](CC(C)C)C(=O)N[C@@H](CCCCNC(=O)CC[C@H](NC(=O)CCCCCCCCCCCCCCCCC(=O)O)C(=O)O)C(=O)N[C@@H](CCC(N)=O)C(=O)N[C@H](C(=O)N[C@@H](CC(C)C)C(=O)N[C@@H](CC(C)C)C(=O)N[C@@H](CCCCN)C(=O)N[C@@H](CCC(N)=O)C(=O)N[C@@H](C)C(=O)N[C@@H](CCCNC(=N)N)C(=O)N[C@@H](CCC(N)=O)C(=O)N[C@@H](CCCCN)C(=O)NC(C)(C)C(=O)N[C@@H](CCC(N)=O)C(=O)N[C@@H](CCCNC(=N)N)C(=O)N[C@@H](C)C(=O)N[C@@H](CCC(N)=O)C(=O)N[C@@H](C)C(=O)N[C@@H](CCC(=O)O)C(=O)N[C@@H](CCCCN)C(=O)N[C@@H](CC(N)=O)C(=O)N[C@@H](CCCCN)C(=O)N[C@@H](CCCNC(=N)N)C(=O)N[C@H](C(=O)N[C@@H](CC(C)C)C(=O)N[C@@H](CCC(=O)O)C(=O)N[C@@H](CCCNC(=N)N)C(=O)N[C@H](C(N)=O)C(C)C)[C@@H](C)CC)[C@@H](C)CC)[C@@H](C)CC)C(C)C)C(C)C
B6: SEQ ID NO: 179 (peptide)
peptide: IVLSLD[dV]PIKLK([γGlu-C18 diacid])QILLKQERQK[Aib]QREQAEKNKQILAQV-NH2
modifications: N-terminus assumed
SMILES: CC[C@H](C)[C@H](N)C(=O)N[C@H](C(=O)N[C@@H](CC(C)C)C(=O)N[C@@H](CO)C(=O)N[C@@H](CC(C)C)C(=O)N[C@@H](CC(=O)O)C(=O)N[C@@H](C(=O)N1CCC[C@H]1C(=O)N[C@H](C(=O)N[C@@H](CCCCN)C(=O)N[C@@H](CC(C)C)C(=O)N[C@@H](CCCCNC(=O)CC[C@H](NC(=O)CCCCCCCCCCCCCCCCC(=O)O)C(=O)O)C(=O)N[C@@H](CCC(N)=O)C(=O)N[C@H](C(=O)N[C@@H](CC(C)C)C(=O)N[C@@H](CC(C)C)C(=O)N[C@@H](CCCCN)C(=O)N[C@@H](CCC(N)=O)C(=O)N[C@@H](CCC(=O)O)C(=O)N[C@@H](CCCNC(=N)N)C(=O)N[C@@H](CCC(N)=O)C(=O)N[C@@H](CCCCN)C(=O)NC(C)(C)C(=O)N[C@@H](CCC(N)=O)C(=O)N[C@@H](CCCNC(=N)N)C(=O)N[C@@H](CCC(=O)O)C(=O)N[C@@H](CCC(N)=O)C(=O)N[C@@H](C)C(=O)N[C@@H](CCC(=O)O)C(=O)N[C@@H](CCCCN)C(=O)N[C@@H](CC(N)=O)C(=O)N[C@@H](CCCCN)C(=O)N[C@@H](CCC(N)=O)C(=O)N[C@H](C(=O)N[C@@H](CC(C)C)C(=O)N[C@@H](C)C(=O)N[C@@H](CCC(N)=O)C(=O)N[C@H](C(N)=O)C(C)C)[C@@H](C)CC)[C@@H](C)CC)[C@@H](C)CC)C(C)C)C(C)C

Biological target: human corticotropin-releasing factor 2α (CRF2 α receptor) (human), Q13324
Test: cell-based or functional assay

human corticotropin-releasing factor 2α (CRF2 α receptor) (human), Q13324, sequence (Q13324 20-411): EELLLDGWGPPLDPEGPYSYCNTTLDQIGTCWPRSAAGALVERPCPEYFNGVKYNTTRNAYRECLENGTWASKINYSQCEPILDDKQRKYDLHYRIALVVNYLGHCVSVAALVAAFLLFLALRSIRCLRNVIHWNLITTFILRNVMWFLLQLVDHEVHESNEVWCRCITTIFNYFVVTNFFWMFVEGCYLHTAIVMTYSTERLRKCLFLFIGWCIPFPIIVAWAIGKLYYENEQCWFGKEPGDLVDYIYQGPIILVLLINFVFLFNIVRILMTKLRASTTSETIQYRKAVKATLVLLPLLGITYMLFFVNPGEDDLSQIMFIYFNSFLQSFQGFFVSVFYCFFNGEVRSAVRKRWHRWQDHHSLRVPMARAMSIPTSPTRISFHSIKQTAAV

Row | Binder | EC50 [nM], 0% HSA | EC50 [nM], 0.1% HSA
1 | B1 | 1.18 nM | 15.3 nM
2 | B2 | 0.12 nM | 
3 | B3 | 0.04 nM | 3.77 nM
4 | B4 | 0.03 nM | 3.13 nM
5 | B5 | 0.05 nM | 1.74 nM
6 | B6 | 0.03 nM | 1.88 nM
